Test results published in the supplement of paper PMC12338614.
± gives the uncertainty stated by the source.

B1: library; numbered along this chain (parent)
chain: MEVVDPQQLGMFTEGELMSVGMDTFIHRIDSTEVIYQPRRKRAKLIGKYLMGDLLGEGSYGKVKEVLDSETLCRRAVKILKKKKLRRIPNGEANVKKEIQLLRRLRHKNVIQLVDVLYNEEKQKMYMVMEYCVCGMQEMLDSVPEKRFPVCQAHGYFCQLIDGLEYLHSQGIVHKDIKPGNLLLTTGGTLKISDLGVAEALHPFAADDTCRTSQGSPAFQPPEIANGLDTFSGFKVDIWSAGVTLYNITTGLYPFEGDNIYKLFENIGKGSYAIPGDCGPPLSDLLKGMLEYEPAKRFSIRQIRQHSWFRKKHPPAEAPVPIPPSPDTKDRWRSMTVVPYLEDLHGADEDEDLFDIEDDIIYTQDFTVPGQVPEEEASHNGQRRGLPKAVCMNGTEAAQLSTKSRAEGRAPNPARKACSASSKIRRLSACKQQ

Variants of: B1
Test: STK11 functional score (HeLa growth suppression), rescaled enrichment; synonymous median = 1, nonsense median = 0 (normalised score)
Details: with HeLa; variant type: missense
How it was run: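 In HeLa, Bxb1 integrated POPCode codon-randomised libraries of codon-optimised STK11 at an AAVS1 landing pad; three regions were each transfected three times. Integrants, marked as BFP-negative and mCherry-positive, were FACS-sorted 4–5 days after electroporation and expanded for about two weeks before tiled gDNA amplicons were sequenced on NextSeq (~2 million reads per tile). Each functional score is a post/pre-selection log ratio corrected to wild type, rescaled to the synonymous and nonsense medians, and merged across codons and replicate transfections, with error estimated by bootstrapping.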

Variant	STK11 functional score
MEVVDPQQLGMFTEGELMSVGMDTFIHRIDSTEVIYQPRRKRAKLIGKYLMGDLLGEGSYGKVKEVLDSETLCRRAVKILKKKKLRRIPNGEANVKKEIQLLRRLRHKNVIQLVDVLYNEEKQKMYMVMEYCVCGMQEMLDSVPEKRFPVCQAHGYFCQLIDGLEYLHSQGIVHKDIKPGNLLLTTGGTLKISDLGVAEALHPFAADDTCRTSQGSPAFQPPEIANGLDTFSGFKVDIWSAGVTLYNITTGLYPFEGDNIYKLFENIGKGSYAIPGDCGPPLSDLLKGMLEYEPAKRFSIRQIRQHSWFRKKHPPAEAPVPIPPSPCTKDRWRSMTVVPYLEDLHGADEDEDLFDIEDDIIYTQDFTVPGQVPEEEASHNGQRRGLPKAVCMNGTEAAQLSTKSRAEGRAPNPARKACSASSKIRRLSACKQQ [D327C]	1.27 ± 0.32
MEVVDPQQLGMFTEGELMSVGMDTFIHRIDSTEVIYQPRRKRAKLIGKCLMGDLLGEGSYGKVKEVLDSETLCRRAVKILKKKKLRRIPNGEANVKKEIQLLRRLRHKNVIQLVDVLYNEEKQKMYMVMEYCVCGMQEMLDSVPEKRFPVCQAHGYFCQLIDGLEYLHSQGIVHKDIKPGNLLLTTGGTLKISDLGVAEALHPFAADDTCRTSQGSPAFQPPEIANGLDTFSGFKVDIWSAGVTLYNITTGLYPFEGDNIYKLFENIGKGSYAIPGDCGPPLSDLLKGMLEYEPAKRFSIRQIRQHSWFRKKHPPAEAPVPIPPSPDTKDRWRSMTVVPYLEDLHGADEDEDLFDIEDDIIYTQDFTVPGQVPEEEASHNGQRRGLPKAVCMNGTEAAQLSTKSRAEGRAPNPARKACSASSKIRRLSACKQQ [Y49C]	1.01 ± 0.28
MEVVDPQQLGMFTEGELMSVGMDTFIHRIDSTEVIYQPRRKRAKLIGKYLMGDLLGEGSYGKVKEVLDSETLCRRAVKILKKKKLRRIPNGEANVKKEIQLLRRLRHKNVIQLVDVLYNEEKQKMYMVMEYCVCGMQEMLDSVPEKRFPVCQAHGYFCQLIDGLEYLHSQGIVHKDIKPGNLLLTTGGTLKISDLGVAEALHPFAADDTCRTSQGSPAFQPPEIANGLDTFSGFKVDIWSAGVTLYNITTGLYPFEGDNIYKLFENIGKGSYAIPGDCGPPLSDLLKGMLEYEPAKRFSIRQIRQHSWFRKKHPPAEAPVPIPPSPDTKDRWRSMTVVPYLEFLHGADEDEDLFDIEDDIIYTQDFTVPGQVPEEEASHNGQRRGLPKAVCMNGTEAAQLSTKSRAEGRAPNPARKACSASSKIRRLSACKQQ [D343F]	1.32 ± 0.39
MEVVDPQQLGMFTEGELMSVGMDTFIHRIDSTEVIYQPRRKRAKLIGKYLMGDLLGEGSYGKVKEVLDSETLCRRAVKILKKKKLRRIPNGEANVKKEIQLLRRLRHKNVIQLVDVLYNEEKQKMYMVMEYCVCGMQEMLDSVPEKRFPVCQAHGYFCQLIDGLEYLHSQGIVHKDIKPGNLLLTTGGTLKISDLGVAEALHPFAADDTCRTSQGSPAFQPPEIANGLDTFSGFKVDIWSAGVTLYNITTGLYPFEGDNIYKLFENIGKGSYAIPGDCGPPLSDLLKGMLEYEPAKRFSIRQIRQHSWFRWKHPPAEAPVPIPPSPDTKDRWRSMTVVPYLEDLHGADEDEDLFDIEDDIIYTQDFTVPGQVPEEEASHNGQRRGLPKAVCMNGTEAAQLSTKSRAEGRAPNPARKACSASSKIRRLSACKQQ [K311W]	0.995 ± 0.075
MEVVDPQQLGMFTEGELMSVGMDTFIHRIDSTAVIYQPRRKRAKLIGKYLMGDLLGEGSYGKVKEVLDSETLCRRAVKILKKKKLRRIPNGEANVKKEIQLLRRLRHKNVIQLVDVLYNEEKQKMYMVMEYCVCGMQEMLDSVPEKRFPVCQAHGYFCQLIDGLEYLHSQGIVHKDIKPGNLLLTTGGTLKISDLGVAEALHPFAADDTCRTSQGSPAFQPPEIANGLDTFSGFKVDIWSAGVTLYNITTGLYPFEGDNIYKLFENIGKGSYAIPGDCGPPLSDLLKGMLEYEPAKRFSIRQIRQHSWFRKKHPPAEAPVPIPPSPDTKDRWRSMTVVPYLEDLHGADEDEDLFDIEDDIIYTQDFTVPGQVPEEEASHNGQRRGLPKAVCMNGTEAAQLSTKSRAEGRAPNPARKACSASSKIRRLSACKQQ [E33A]	1.32 ± 0.2
MEVVDPQQLGMFTEGELMSVGMDTFIHRIDSTEVIYQPRRKRAKLIGKYLMGDLLGEGSYGKVKEVLDSETLCRRAVKILKKKKLRRIPNGEANVKKETQLLRRLRHKNVIQLVDVLYNEEKQKMYMVMEYCVCGMQEMLDSVPEKRFPVCQAHGYFCQLIDGLEYLHSQGIVHKDIKPGNLLLTTGGTLKISDLGVAEALHPFAADDTCRTSQGSPAFQPPEIANGLDTFSGFKVDIWSAGVTLYNITTGLYPFEGDNIYKLFENIGKGSYAIPGDCGPPLSDLLKGMLEYEPAKRFSIRQIRQHSWFRKKHPPAEAPVPIPPSPDTKDRWRSMTVVPYLEDLHGADEDEDLFDIEDDIIYTQDFTVPGQVPEEEASHNGQRRGLPKAVCMNGTEAAQLSTKSRAEGRAPNPARKACSASSKIRRLSACKQQ [I99T]	1.45 ± 0.43
MEVVDPQQLGMFTEGELMSVGMDTFIHRIDSTEVIYQPRRKRAKLIGKYLMGDLLGEGSYGKVKEVLDSETLCRRAVKILKKKKLRRIPNGEANVKKEIQLLRRLRHKNVIQYVDVLYNEEKQKMYMVMEYCVCGMQEMLDSVPEKRFPVCQAHGYFCQLIDGLEYLHSQGIVHKDIKPGNLLLTTGGTLKISDLGVAEALHPFAADDTCRTSQGSPAFQPPEIANGLDTFSGFKVDIWSAGVTLYNITTGLYPFEGDNIYKLFENIGKGSYAIPGDCGPPLSDLLKGMLEYEPAKRFSIRQIRQHSWFRKKHPPAEAPVPIPPSPDTKDRWRSMTVVPYLEDLHGADEDEDLFDIEDDIIYTQDFTVPGQVPEEEASHNGQRRGLPKAVCMNGTEAAQLSTKSRAEGRAPNPARKACSASSKIRRLSACKQQ [L113Y]	1.67 ± 0.24
MEVVDPQQLGMFTEGELMSVGMDTFIHRIDSTEVIYQPRRKRAKLIGKYLMGDLLGEGSYGKVKEVLDSETLCRRAVKILKKKKLRRIPNGEANVKKEIQLLRRLRHKNVIQLVDVLYNEEKQKMYMVMEYCVCGMQEMLDSVPEKRFPVCQAHGYFCQLIDGLEYLHSQGIVHKDIKPGNLLLTTGGTLKISDLGVAEALHPFAADDTCRTSQGSPAFQPPEIANGLDTFSGFKVDIWSAGVTLYNITTGLYPFESDNIYKLFENIGKGSYAIPGDCGPPLSDLLKGMLEYEPAKRFSIRQIRQHSWFRKKHPPAEAPVPIPPSPDTKDRWRSMTVVPYLEDLHGADEDEDLFDIEDDIIYTQDFTVPGQVPEEEASHNGQRRGLPKAVCMNGTEAAQLSTKSRAEGRAPNPARKACSASSKIRRLSACKQQ [G257S]	1.39 ± 0.13
MEVVDPQQLGMFTEGELMSVGMDTFIHRIDSTEVIYQPRRKRAKLIGKYLMGDLLGEGSYGKVKEVLYSETLCRRAVKILKKKKLRRIPNGEANVKKEIQLLRRLRHKNVIQLVDVLYNEEKQKMYMVMEYCVCGMQEMLDSVPEKRFPVCQAHGYFCQLIDGLEYLHSQGIVHKDIKPGNLLLTTGGTLKISDLGVAEALHPFAADDTCRTSQGSPAFQPPEIANGLDTFSGFKVDIWSAGVTLYNITTGLYPFEGDNIYKLFENIGKGSYAIPGDCGPPLSDLLKGMLEYEPAKRFSIRQIRQHSWFRKKHPPAEAPVPIPPSPDTKDRWRSMTVVPYLEDLHGADEDEDLFDIEDDIIYTQDFTVPGQVPEEEASHNGQRRGLPKAVCMNGTEAAQLSTKSRAEGRAPNPARKACSASSKIRRLSACKQQ [D68Y]	-0.0799 ± 0.081
MEVVDPQQLGMFTEGELMSVGMDTFIHRIDSTEVIYQPRRKRAKLIGKYLMGDLLGEGSYGKVKEVLDSETLCRRAVKILKKKKLRRIPNGEANVKKEIQLLRRLRHKNVIQLVDVLYNEEKQKMYMVMEYCVCGMQEMLDSVPEKRFPVCQAHGYFCQLIDGLEYLHSQGIVHKDIKPGNLLLTTGGTLKISDLGVAEALHPFAADDTCRTSQGSPAFQPPEIANGLDTFSGFKVDIWSAGVTLYNITTGMYPFEGDNIYKLFENIGKGSYAIPGDCGPPLSDLLKGMLEYEPAKRFSIRQIRQHSWFRKKHPPAEAPVPIPPSPDTKDRWRSMTVVPYLEDLHGADEDEDLFDIEDDIIYTQDFTVPGQVPEEEASHNGQRRGLPKAVCMNGTEAAQLSTKSRAEGRAPNPARKACSASSKIRRLSACKQQ [L252M]	0.771 ± 0.35
MEVVDPQQLGMFTEGELMSVGMDTFIHRIDSTEVIYQPRRKRAKLIGKYLMGDLLGEGSYGKVKEVLDSETLCRRAVKILKKKKLRRIPNGEANVKKEIQLLRRLRHKNVIQLVDVLYNEEKQKMYMVMEYCVCGMQEMLDSVPEKRFPVCQAHGYFCQLIDGLEYLHSQGIVHKDIKPGNLLLTTGGTLKISDLGVAEALHPFAADDTCRTSQGSPAFQPPEIANGLDTFSGFKVDIWSAGVTLYNITTGLYPFEGDNIYKLFENIGKGSYAIPGDCGPPLSDLLKGMLEYEPAKRFSIRQIRQHSWFRKKHPPAEAPVPIPPSPDTKDRWRSMTVVPYLEDLHGADEDEDLFDIEDDIIYTQDFTVPGQVPEEEASHNGQRRGLRKAVCMNGTEAAQLSTKSRAEGRAPNPARKACSASSKIRRLSACKQQ [P387R]	1.47 ± 0.31
MEVVDPQQLGMFTEGELMSVGMDTFIHRIDSTEVIYQPRRKRAKLIGKYLMGDLLGEGSYGKVKEVLDSETLCRRAVKILKKKKLRRIPNGEANVKKEIQLLRRLRHKNVIQLVDVLYNEEKQKMYMVMEYCVCGMQEMLDSVPEKRFPVCQAHGYFCQLIDGLEYLHSQGIVHKDIKPGNLLLTTGGTLKISDLGVAEALHPFAADDTCRTSQGSPAFQPPEIANGLDTFSGFKVDIWSAGVTLYNITTGLYPFEGDNIYKLFENIGKGSYAIPGDCGPPLSDLLKGMLEYEPAKRFSIRQIRQHSWFRKKHPPAEAPVPIPPSPDTKDRWRSMTVVPYLEDLHGADEDEDLFHIEDDIIYTQDFTVPGQVPEEEASHNGQRRGLPKAVCMNGTEAAQLSTKSRAEGRAPNPARKACSASSKIRRLSACKQQ [D355H]	1.11 ± 0.65
MEVVDPQQLGMFTEGELMSVGMDTFIHRIDSTEVIYQPRRKRAKLIGKYLMGDLLGEGSYGKVKEVLDSETLCRRAVKILKKKKLRRIPNGEANVKKEIQLLRRLRHKNVIQLVDVLYNEEKQKMYMVMEYCVCGMQEMLDSVPEKRFPVCQAHGYFCQLIDGLEYLHSQGIVHKDIKPGNLLLTTGGTLKISDLGVAEALHPFAADDTCRTSQGSPAFQPPEIANGLDTFSGFKVDIWSAGVTLYNITTGLYPFEGDNIYKLFENIGKGSYAIPGDCGPPLSDLLKGMLEYEPAKRFSIRQIRQHSWFRKKHPPAEAPVPIPPSPDTKDRWRSMTVVPYGEDLHGADEDEDLFDIEDDIIYTQDFTVPGQVPEEEASHNGQRRGLPKAVCMNGTEAAQLSTKSRAEGRAPNPARKACSASSKIRRLSACKQQ [L341G]	1.46 ± 0.18
MEVVHPQQLGMFTEGELMSVGMDTFIHRIDSTEVIYQPRRKRAKLIGKYLMGDLLGEGSYGKVKEVLDSETLCRRAVKILKKKKLRRIPNGEANVKKEIQLLRRLRHKNVIQLVDVLYNEEKQKMYMVMEYCVCGMQEMLDSVPEKRFPVCQAHGYFCQLIDGLEYLHSQGIVHKDIKPGNLLLTTGGTLKISDLGVAEALHPFAADDTCRTSQGSPAFQPPEIANGLDTFSGFKVDIWSAGVTLYNITTGLYPFEGDNIYKLFENIGKGSYAIPGDCGPPLSDLLKGMLEYEPAKRFSIRQIRQHSWFRKKHPPAEAPVPIPPSPDTKDRWRSMTVVPYLEDLHGADEDEDLFDIEDDIIYTQDFTVPGQVPEEEASHNGQRRGLPKAVCMNGTEAAQLSTKSRAEGRAPNPARKACSASSKIRRLSACKQQ [D5H]	1.13 ± 0.53
